The target of assay [1] is rhu EGFR (Fc) (human (rhu)) (UniProt P00533). Put plainly: pH 6.
The target is the same in assay [2].

Like-named read-outs stand apart in the source and are kept apart here.

For “A-dmDT390-EGF (other; other documents disagree on this pair)”, the Kd in assay [1] stood at 102 nM; in assay [2], 5.81 nM.
